Experiment [1] deals with T1, EGFR-ECD (UniProt P00533 25-645). Description: BLI. A general note: Biolayer interferometry detects binding as a change in optical thickness at a sensor tip.
In experiment [2] the target is T1, EGFR-ECD. The experiment is described as follows: BLI. This is another data set of the same source.

One may read the koff as the rate constant with which the complex falls apart. Low readings indicate slow dissociation, high ones fast dissociation. Usually kon stands for a measure of how fast the partners come together. A low value points to slower complex formation. A word on the Kd: it is the concentration at which binding is half-saturated. Low values mean tighter binding, high ones weaker binding.

B1: Anti-EGFR mAb (antibody, V domains shown)
VH: EVQLVESGGGLVQPGGSLRLSCAASGFSLTNRGVHWVRQAPGKGLEWVGVIWSGGNTDYNTPFTSRFTISRDNSKNTLYLQMNSLRAEDTAVYYCARALTYYDYEFAYWGQGTLVTVSS
VL: not shown
In the experiment with EGFR-ECD [1], B1 came in with a koff of 0.00034 s⁻¹ and a kon of 350000 M⁻¹ s⁻¹. Besides, the Kd in the experiment with EGFR-ECD [2] is around 1 nM.
